The record followed here is patent US7285395B2, “Stearoyl-CoA desaturase 4 gene” (Wisconsin Alumni Research Foundation, priority 2004, dated 2007).

One experiment concerns mSCD4. In words: quantitative RT-PCR of mSCD4 mRNA in hearts of leptin-treated ob/ob mice. In kind it is in vivo, mouse. The conditions noted are these: heart of leptin-treated ob/ob mice, 12 days. The procedure:
(§1) A, SCD activity: Microsomes were prepared from hearts of PBS-treated, ob/ob, ob/ob pair-fed (PF), and leptin-treated (ob/ob-Leptin) mice, and SCD enzyme activity was determined by measuring the incorporation of radioactivity in oleoyl-CoA using [1-^14C]stearoyl-CoA as a substrate. The reaction products were separated by TLC, and the radioactivity was quantitated. Each value represents the mean±S.E. (n=4). B, Levels of monounsaturated fatty acids in the hearts of ob/ob mice: Total fatty acids were extracted from heart of ob/ob mice treated with either leptin or PBS and wild type controls quantitated by GLC as described in the example below. *, p<0.05 versus wt-PBS; #,p<0.05 versus ob/ob-PBS. C, Total RNA was prepared from hearts of PBS or leptin-treated ob/ob mice and used to measure SCD1, SCD2, and SCD4 mRNA levels by quantitative RT-PCR analysis. The fold change relative to that of wild type was calculated after correction for the levels of cyclophilin used as a standard. Each value represents the mean±S.E. (n=4).
(§2) Subcutaneous Leptin Treatment—ob/ob mice were individually caged and allowed to acclimate for a number of days prior to the start of the experiment. […] Body mass and food intake were measured daily. […]

The test system of another experiment is SCD. In words: SCD enzyme activity in heart microsomes of leptin-treated ob/ob mice. In kind it is in vivo, mouse. The following applies: leptin 12 days, [1-14C]stearoyl-CoA substrate, elevated 3-fold in untreated ob/ob. How it is done:
as §1, §2

B1: leptin: recombinant mouse leptin (Amgen, Thousand Oaks, Calif.) (protein, UniProt P41160 22-167, looked up)
Leptin: VPIQKVQDDTKTLIKTIVTRINDISHTQSVSAKQRVTGLDFIPGLHPILSLSKMDQTLAVYQQVLTSLPSQNVLQIANDLENLRDLLHLLAFSKSCSLPQTSGLQKPESLDGVLEASLYSTEVVALSRLQGSLQDILQQLDVSPEC
In the case of B1, the “decrease of SCD4 mRNA levels” value in the experiment with mSCD4 is given as “greater than 75%”. The “SCD activity in heart” value with SCD is “completely normalized to wild type levels”.
